Measurements reported in the nanobody polyreactivity screen of Harvey et al. (2022).

Assay: yeast display, Sf9 membrane polyspecificity reagent, FACS + sequencing; frameworks hold sequencing errors
In short: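 A synthetic nanobody library was expressed on Saccharomyces cerevisiae BJ5465 by galactose induction for 36–48 hours. The library was stained for 1 hour at 4 °C with 10% biotinylated, detergent-solubilized Sf9 membrane reagent and enriched with streptavidin microbeads before FACS. Low and high (top ~1%) gates were set on anti-HA fluorescence for expression and streptavidin fluorescence for reagent binding, and each polyreactivity label reflects the gate of origin.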

QVQLVESGGGLVQAGGSLRLSCAASGFTFYQYAMGWYRQAPGKERELVAAISSGGSTYYADSVKGRFTISRDNAKNTVYLQMNSLKPEDTAVYYCAARFYRPGVKQYGYWGQGTQVTVSS
polyreactivity (PSR sort gate): high polyreactivity

QVQLVESGGGLVQAGGSLRLSCAASGRTFYRNTMGWYRQAPGKERELVAAITSSGGSTYYADSVKGRFTISRDNAKNTVYLQMNSLKPEDTAVYYCAAPTWQKVVNPGGYYWGQGTQVTVSS
polyreactivity (PSR sort gate): high polyreactivity

QVQLVESGGGLVQAGGSLRLSCAASGSILLEYAMGWYRQAPGKERELVAAISRGGTTNYADSVKGRFTISRDNAKNTVYLQMNSLKPEDTAVYYCAAGKIGRRGHQNRLDLDYWGQGTQVTVSS
polyreactivity (PSR sort gate): low polyreactivity

QVQLVESGGGLDQAGGSLRLSCAASGRIFRCYAMGWYREAPGKERELVAAISWSSGNTYYADSVKGRFTISRDNAKNTVYLQMNSLKAEDTAVYYCAADFKPTSRSNKYYYWGQGTQVTVSS
polyreactivity (PSR sort gate): high polyreactivity

QVQLVESGGGLVQAGGSLRLSCAASGRIFQIYAMGWYRQAPGKERELVAAIRSGSNTNYADSVKGRFTISRDNAKNTVYLQMNSLKPEDTAVYYCAADGWYSAVGVWLEYDYWGQGTQVTVSS
polyreactivity (PSR sort gate): low polyreactivity

QVQLVESGGGLVQAGGSLRLSCAASGSIFGGYVMGWYRQAPGKERELVAAITSGGSTYYADSVKGRFTISRDNAKNTVYLQMNSLKPEDTAVYYCNADPYTYSYGMYYWGHGTQVTVSS
polyreactivity (PSR sort gate): low polyreactivity

QDQLVESGGGLVQAGGSLRLSCAASGRIFNANTMGWYRQAPGKERELVARITWSGGGTYYADSVKGRFTISRDNAKNTVYLQMNCLKPEDTAVYYCAARLLIRYYYWGHGTQVTVSS
polyreactivity (PSR sort gate): high polyreactivity

QVQLVESGGGLVQAGGSLRLSCAASGRTFRFYAMGWYRQAPGKERELVAAIRWSGGSTYYADSVKGRFTISRDNAKNTVYLQMNSLKPEETAVYYCAAARWSQYRTWMNYWGQGTQVTVSS
polyreactivity (PSR sort gate): high polyreactivity

QVQLVESGGGLVQAGGSLRLSCAASGFIFGFYAMGWYRQAPGKERELVAAISSSGGSTYYADSVKGRFTISRDTAKNTGYLQMNSLKPEDTAVYYCAAYFYYLDDAVTYDYWGQGTQVTVSS
polyreactivity (PSR sort gate): low polyreactivity

QVQLVESGGGLVQAGGSLPLSCAASGRIFRGYAMGWYRQAPGKERELVAAISRTGGSTYYADSVKGRFTISRDNAKNTVYLQMNSLKPEDTEVYYCNANRFRRYDWGQGTLVTVSS
polyreactivity (PSR sort gate): high polyreactivity

QVQLVESGGGLVQAGGSLRLSCAASGSIFTRNTMGWYRQAPGKERELVAAINRSGGRTYYADSVKGRFTISRDNAKNSVYLTMNSLKPEDTAVYYCAAYTQGSRYDYWGQGTQVTVSS
polyreactivity (PSR sort gate): high polyreactivity

QVQLVESGGGLVQAGGSLRLSCASSGRNFCIYGMAWYRQAPGKERELVAAISYDSGSTYYADSVTGRFTISRDNAKNTVYLQMNSLNPEDTAVYYCAAEWGLVIYSTYGYDYWGQGTQVTVSS
polyreactivity (PSR sort gate): low polyreactivity

QVQLVESGGGLVHAGGSLRLSCAASGSTFGYYAIGWNRQAPGKERELVAVITGSGGSTYYADSVKGRFTISRDYAKNTVYLQMNSLKPEDTAVYYCAARRWNPTYEYWGQGTQVTVSS
polyreactivity (PSR sort gate): high polyreactivity

QVQLVESGGGLVQAGGSLRLSCAASGFTFGLYAMGWYRQAPGKERELVASITWSGGSTYYADSVKGRFTISRDNAKNTVYLQMNSLKPEDTAVYDCAKRLYLITWAASSADDYWGQGTQVTVSS
polyreactivity (PSR sort gate): low polyreactivity

QVQLVESGGGLVQAGGSLRLSCAASGSIYKYYAMGWYRQAPGKERELVAALTIGGITNYADSVKGGFTISRDNATNTVYLQMTSLKPEDPAVYYCATGVYYSAIVYGGYDYWGQGTQVTVSS
polyreactivity (PSR sort gate): low polyreactivity

QVQLVESGGGLVQAGGSLRLSCAASGRIFYNYGMGWYRQAPGKERELVAAISSSGGSTSYADSVKGRFTISRDNAKNTVYLQMNSLKPEDTAVYYCAASWPRWWRFGYWGQGTQVTVSS
polyreactivity (PSR sort gate): low polyreactivity

QVHLEESGAGLVQAGGSLRISCAASGFIFDYYAMGWYRQAPGKERELVATITSRGGSTYYADSVKGRFTISRDNAKNTVSLQMNRLKPDYNGVYYCAAVSHPGRKYYYWGQGTQVTVSS
polyreactivity (PSR sort gate): high polyreactivity

QVQLVESGGGLVQAGGSLRLSCAASGSIFRPYAMGWYRQAPGKERELVAAISGSGGTTYYADSVKGRFTISRDNAKNTVYLQMNSLKTEETAVYYCAARNFSAFWLGGYDYWGQGTQVTVSS
polyreactivity (PSR sort gate): low polyreactivity

QVQLVESGGGLVQAGGSLRLSCAASGRTLKKNAMGWYRQAPGKEMELVAAITSSTGITYYADSVKGRFTISRDNAKNTVYLQMNSLKPEDTAVYYCAADPPRTLSLIFYSREWSYDYWGQGTQVTVSS
polyreactivity (PSR sort gate): low polyreactivity

QVQLVESGGGLVQAGGSLRLSCAASGRTFYHYTMGWYRQAPGKARELVAAITSGGSTYYADSVKGRFTISRDYAKNTVYLQMNSLKPEDTAVYYCARVRPLYHFSRYDDCGQGTQVTVSS
polyreactivity (PSR sort gate): high polyreactivity

LVQLQESGGGLVQAGGSLRLSCAASGTISPGGYMGWYRQAPGKERELVASINVGGSTNYADSVKGRFTISRDNAKNTVYLQRNSLKPEDNAVYYCAVWGRNRLQLSYWGQGTQVTVSS
polyreactivity (PSR sort gate): low polyreactivity

QVQLVESGGGLVQAGGSHRLSCAASGSIFVVYAMGWYRQAPGKERELVASIRTGGSTNYADSVKGRFTISRDNAKNTVYLQMNSLKPEDTAVYYCAAASWNSNRHYYVARYYYWGQGTQVTVSS
polyreactivity (PSR sort gate): high polyreactivity

QVQLVESGGGLVQAGGSLRLSCAASGFTFRYYTMVWYRQAPGKERELVAAITSSGGNTYYADSVKGRFTISRDNAKNTVYLQMNSLKPEDTAVYYCAADAYPQYNGWSWMDYWGQGTQVTVSS
polyreactivity (PSR sort gate): low polyreactivity

QVQLVESGGGLVQAGGSLRLSCAASGITFNVYTMGWYRQAPGKERELVAAITSSGGSTYYADSVKGRFTISRDNAKNTVYLQMNSLKPEDTAVYYCAARGWTRYSPSSRWYDYWGQGTQVTVSS
polyreactivity (PSR sort gate): high polyreactivity

QVQLVESGGGLVQAGGTLRLSCAASGGTFKVNAMGWYRQAPGKERELVASITGRGGSTYYADSVKGRFTISRDNAKNTVYLQMNSLKPEDTAVYYCAAAWRLGHLRFNSWGQGTQVTVSS
polyreactivity (PSR sort gate): high polyreactivity

QVQLVESGGGLVQAGGSLRLSCAASGSTFATNAMGWDRQAPGKERELVASISSGGSTTYADSVKGRFTISRDNAKNTVYLQMNSLKPEDTAVYYCNKRYLWRNSRGFDYWGQGTQVTVSS
polyreactivity (PSR sort gate): low polyreactivity

QVQLVESGGGLVQAGGSLRLSCAATGLNFAYNAMGWYRQAPGKERELVAAITGGGDGTYYADSVKGRFTISRDNAKNTVYLQMNSLKPEDTAVYYCADDYKYVGSEYGYWGQGTQVTVSS
polyreactivity (PSR sort gate): low polyreactivity

QVQLVESGGGLVQAGGSLRISCAASGYIFTGNAMGWYRKAPGKEREFVAAISWSGGSTYYADSVKGRFTISRDNAKNTVYLQMNSLKPEDTAVYYCNKYRPYGRIYHLAYGRDYWGQGTQVTVSS
polyreactivity (PSR sort gate): high polyreactivity

QVHLVESGGGLVQAGGSLRLSCAASGSIFLAYAMGWYRQAPGKERELVAAISGGGSTYADSVKGRFTISRDNAKNTVYLQMNSLKPEDTAVYYCNADGRGDRFWSNFRFDYWGQGTQVTVSS
polyreactivity (PSR sort gate): low polyreactivity

QDQLVESGGGLVQAGASLRLSCAASGRISYYYTMGWYRQAPGKERELVAAISWSGGTTYYADSVKGRFTISRDNAKNTVYLQMNSLKPDDTAVYYCAAREYYTDVHGTRRYDYWGQGTQVTVSS
polyreactivity (PSR sort gate): low polyreactivity

QFQLVESGGGLVQAGVSLRLSCAASGRIFSHYAMGWYRQAPGKERELVAASSSGGITYYADSVKGRFTISLDNAKNTVYLQMNCQKPEDTAVYYCAAVRRRGTTYDYWGQGTQVTVSS
polyreactivity (PSR sort gate): high polyreactivity
